Here are results for one molecule from patent US5876691A, “Antibody against carcionembryonic antigen (CEA)” (Cancer Research Campaign Technology Limited, priority 1993, dated 1999).

Some results are limits rather than exact numbers.

The nature of series [1]: Storage stability by FPLC (Superose 12). In kind it is physicochemical. As to conditions: 4° C. and -70° C. up to 6 months. Here is the method:
(§1) Samples at each purification stage were analysed for endotoxin levels using Limulus ameobocyte lysate (LAL) gel clot vials (Atlas bioscan. Bognor Regis, UK) according to the manufacturers' recommended instructions; a further aliquot (three times the patient dose) was tested by injection into rabbits (Safepharm Laboratories; Derby, UK) Bacterial supernatant containing MFE-23 His, semipurified MFE-23 His and the final product were tested for the presence of bacterial DNA using the Digoxigenin (DIG) DNA labelling and detection assay (Boeringer Mannheim, Lewes, UK). A probe was constructed using a mixture of equal proportions of MFE-23 plasmid DNA and total bacterial DNA. DIG labelled DNA probes were detected after hybridisation. to target samples by enzyme-linked immunoassay using an anti-DIG alkaline phosphatase conjugate. The probe was sensitive to 12 pg of DNA. […] Stability of the antibody was assessed by storing aliquots at 4° C. and -70° C. and subsequently analysing samples at certain time intervals using a Superose 12 HR 10/30 (Pharmacia) FPLC column. Retention of antigen binding following 6 months storage at 4° C. was measured by applying a known amount of purified antibody to the CEA affinity column (refer to section 2.7) and quantitating the % bound (specific activity). […]

Series [2] deals with T1, CEA (Homo sapiens, UniProt P06731).
T1 sequence (P06731 35-702): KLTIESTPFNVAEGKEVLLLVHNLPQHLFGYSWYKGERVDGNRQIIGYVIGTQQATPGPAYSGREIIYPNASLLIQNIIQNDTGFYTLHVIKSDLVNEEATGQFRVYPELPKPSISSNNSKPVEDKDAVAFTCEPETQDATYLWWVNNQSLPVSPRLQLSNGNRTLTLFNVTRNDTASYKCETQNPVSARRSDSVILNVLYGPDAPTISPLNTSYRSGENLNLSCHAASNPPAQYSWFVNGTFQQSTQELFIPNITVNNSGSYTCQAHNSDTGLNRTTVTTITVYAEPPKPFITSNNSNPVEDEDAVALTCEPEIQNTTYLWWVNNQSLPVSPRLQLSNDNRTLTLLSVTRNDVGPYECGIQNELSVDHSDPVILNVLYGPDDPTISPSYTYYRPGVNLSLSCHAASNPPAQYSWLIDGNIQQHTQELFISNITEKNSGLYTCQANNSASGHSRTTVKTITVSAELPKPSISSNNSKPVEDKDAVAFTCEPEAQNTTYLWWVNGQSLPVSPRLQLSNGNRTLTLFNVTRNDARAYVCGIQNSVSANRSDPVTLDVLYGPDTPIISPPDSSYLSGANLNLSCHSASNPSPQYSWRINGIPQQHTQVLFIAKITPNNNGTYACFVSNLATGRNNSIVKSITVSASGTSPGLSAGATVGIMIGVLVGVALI
Briefly: Retention of antigen binding on storage (CEA affinity column, specific activity). More on the design: CEA was obtained from a patient's colorectal tumour liver metastasis by extraction using perchloric acid; from tissue; host or cells: patient's colorectal tumour liver metastasis, perchloric acid extract. Here is the method: 2 liters of MFE-23 His which had been concentrated and dialysed in PBS (400 ml) was purified using a 6 ml cyanogen bromide activated Sepharose 4B (Pharmacia Biotech.) affinity column coupled to CEA (8 mg). CEA was obtained from a patient's colorectal tumour liver metastasis by extraction using perchloric acid^34. One column pass of 30 ml supernatant per run was performed.
Samples at each purification stage were analysed for endotoxin levels using Limulus ameobocyte lysate (LAL) gel clot vials (Atlas bioscan. Bognor Regis, UK) according to the manufacturers' recommended instructions; a further aliquot (three times the patient dose) was tested by injection into rabbits (Safepharm Laboratories; Derby, UK) Bacterial supernatant containing MFE-23 His, semipurified MFE-23 His and the final product were tested for the presence of bacterial DNA using the Digoxigenin (DIG) DNA labelling and detection assay (Boeringer Mannheim, Lewes, UK). A probe was constructed using a mixture of equal proportions of MFE-23 plasmid DNA and total bacterial DNA. DIG labelled DNA probes were detected after hybridisation. to target samples by enzyme-linked immunoassay using an anti-DIG alkaline phosphatase conjugate. The probe was sensitive to 12 pg of DNA. The final product was also assayed for Cu^2+ content and compared with earlier purification stages, using flame photometry (Trace Element laboratory-University of Surrey). An aliquot was also protein sequenced using amino acid analysis by the CRC protein sequencing facility (University college of London) to confirm homogeneity of the final product and cleavage of the pelB leader sequence in the periplasm. Stability of the antibody was assessed by storing aliquots at 4° C. and -70° C. and subsequently analysing samples at certain time intervals using a Superose 12 HR 10/30 (Pharmacia) FPLC column. Retention of antigen binding following 6 months storage at 4° C. was measured by applying a known amount of purified antibody to the CEA affinity column (refer to section 2.7) and quantitating the % bound (specific activity). These values were compared by applying a known amount of MFE-23 His previously purified using the same column.

Series [3] is described as follows: Stability of radiolabelled product by gel filtration on S-100 / SDS PAGE. As to conditions: 125I label, SDS PAGE and gel filtration. In kind it is physicochemical. In general terms: In gel filtration, larger molecules generally elute earlier.
The nature of series [4]: Pyrogen test by injection into rabbits. It counts as in vivo. As to conditions: final product, three times the patient dose. As to the method:
as §1

Series [5] deals with T1, CEA. Description: CEA binding of radiolabelled product on CEA/Sepharose column. Here is the method:
75 μg of A5-SC and MFE-23 were iodinated with 0.5 mCi of 125-I using the Chloramine T/L-Tyrosine method^20. […] The stability of the radiolabelled products was tested by gel filtration on S-100.
MFE-cys was radiolabelled with ^99m Tc using a ^99m Tc-D-glucarate transfer method^22. 1 ml of ^99m Tc sodium pertechnetate (40.5 mCi) was added to 12.5 mg of monopotassium D-glucarate, 16.8 mg of sodium bicarbonate and 100 μg of stannous chloride (stannous chloride was made up directly before use at a concentration of 0.2 mg/ml). This solution was left for 1 min at room temperature. Then 0.5 ml was mixed with 200 μg MFE-cys in PBS/1 mM EDTA. The mixture was incubated at room temperature for 30 min and then applied to a PD 10 column (Pharmacia; primed with 3% human serum albumin in PBS) to separate the radiolabelled protein from the free pertechnetate. The efficiency of ^99m Tc uptake was tested by thin layer chromatography, using acetonitrile/water (30:20) as running solvent. An aliquot (100 μl) of diluted radiolabelled scFv (1:30 in PBS/Tween 20) was applied to a 1 ml CEA-sepharose column, containing 1 mg of CEA, to test CEA-binding. The column was washed with 8 volumes of PBS/0.05% Tween 20 and bound material was obtained by adding 3M ammoniumthiocyanate. Further, the stability of the labelled scFv was tested by applying the product (diluted 1:30) to Sephacryl S-100. To test the stability of the radiolabelled product in vivo serum taken from mice injected with the labelled scFv 24 h after administration was also applied to Sephacryl S-100. Stability of the ^99m Tc-labelled product was also tested by gel autoradiography as follows: radiolabelled MFE-cys was subjected to SDS-PAGE using a 15% non-reducing acrylamide gel. The protein was then Western blotted onto Immobilon P (Millipore), and visualised by autoradiography using Kodak X-Omatic cassette and Hyperfilm-MP film (Amersham).
Thin layer chromatography (TLC) was performed to measure % ^125 I incorporation. Antigen binding was also assessed by applying a dilution of the radiolabel to a CEA coupled Sepharose 4B (1 mg CEA; 1 ml column volume). The unbound fraction was washed through with 2 column volumes of PBS and the bound fraction with the same volume of 3M ammonium thiocyanate. A control scFv B1.8 which is not specific for CEA and MFE-23 containing a c-myc tag (MFE-23 myc) were tested as a comparison. The unbound and bound fractions were analysed for ^125 I activity using a gamma counter. Stability assessments were carried out by applying a sample of the radiolabel and unlabelled product to a 15% SDS PAGE minigel. The ^125 I-MFE-23 His was visualised by autoradiography and the unlabelled product by Coomassie blue staining. ^125 I-MFE-23 His was also applied to a 100 ml Sephacryl S-100 column (115×1 cm). 1.5 ml fractions were collected and counted for ^125 I activity.

B1: MFE-23 His: MFE-23 scFv with hexa-histidine tail at the C-terminus, clinical grade (protein)
scFv: QVKLQQSGAELVRSGTSVKLSCTASGFNIKDSYMHWLRQGPEQGLEWIGWIDPENGDTEYAPKFQGKATFTTDTSSNTAYLQLSSLTSEDTAVYYCNEGTPTGPYYFDYWGQGTTVTVSSGGGGSGGGGSGGGGSENVLTQSPAIMSASPGEKVTITCSASSSVSYMHWFQQKPGTSPKLWIYSTSNLASGVPARFSGSGSGTSYSLTISRMEAEDAATYYCQQRSSYPLTFGAGTKLELK
For the molecule B1, the “stability on storage, FPLC analysis” value in series [1] is reported as “no evidence of aggregation”. The “antigen binding retained after storage” value in series [2] (6 months storage at 4° C.) worked out at 84%. Further, the “Specific activity (% bound to CEA column)” value is listed as 89% in series [2] (CEA antigen affinity chromatography purified (d), 1 mg applied to column); 69% in series [2] (IMAC purified (a), 2 mg applied to column, 6 months storage at 4° C.); 75% in series [2] (IMAC purified (b), 1 mg applied to column, 6 months storage at 4° C.); 81% in series [2] (IMAC purified (c), 0.5 mg applied to column, 6 months storage at 4° C.). For the same molecule, the “mean % bound specific activity” value in series [2] (IMAC purified material (a-c)) was found to be 75%. Also, the “stability of radiolabelled product” value in series [3] is “monomeric, intact and unaggregated”. In addition, the “pyrogenicity by in vivo rabbit testing” value in series [4] is recorded as “non pyrogenic”. Besides, the “counts in bound fraction of CEA column, % of total counts recovered” value in series [5] (125I radiolabelled, Example 5) is on record as 75%. In series [5] (125I radiolabelled, Example 5), the “counts in unbound fraction of CEA column, % of total counts recovered” value is 25%. Also, in series [5] (% of total counts loaded, unbound fraction reapplied to CEA column), the “further counts recovered in bound fraction on reapplying the unbound fraction” value is recorded as 58%. For the same molecule, in series [5] (after radiolabelling (125I)), the “antigen binding retained after radiolabelling” value is over 75%.
